Experimental data published in publication PMC4619645.

What was measured:
[1] = molecular target: invariant surface glycoprotein ISG65 (Trypanosoma brucei brucei (endogenous in bloodstream-form cells, MITat 1.2, Lister 427)); assay: native gel or EMSA; Blue Native PAGE of bloodstream-form cell lysates, followed by western blotting; carried out as described in ref. 57
[2] = molecular target: invariant surface glycoprotein ISG75 (Trypanosoma brucei brucei (endogenous in bloodstream-form cells, MITat 1.2, Lister 427)); assay: as above

Row | Substance | stoichiometry N [1] | stoichiometry N [2]
1 | invariant surface glycoprotein ISG65 (natural protein) | 2 | 
2 | invariant surface glycoprotein ISG75 (natural protein) |  | > 2
